Patent US20240409645A1 (published 2024)

Target: T1, human IL-2 receptor IL-2Rα/IL-2Rβ/γc on HEK-Blue IL-2 cells (UniProt P01589 22-272; P14784 27-551; P31785 23-369)
T1 chain 1: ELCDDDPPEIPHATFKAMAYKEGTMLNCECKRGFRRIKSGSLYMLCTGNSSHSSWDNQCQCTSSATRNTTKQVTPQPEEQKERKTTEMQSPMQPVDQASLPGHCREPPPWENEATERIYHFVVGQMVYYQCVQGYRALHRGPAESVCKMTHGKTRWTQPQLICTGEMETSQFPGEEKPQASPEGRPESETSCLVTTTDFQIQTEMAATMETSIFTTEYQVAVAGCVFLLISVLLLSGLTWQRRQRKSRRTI
T1 chain 2: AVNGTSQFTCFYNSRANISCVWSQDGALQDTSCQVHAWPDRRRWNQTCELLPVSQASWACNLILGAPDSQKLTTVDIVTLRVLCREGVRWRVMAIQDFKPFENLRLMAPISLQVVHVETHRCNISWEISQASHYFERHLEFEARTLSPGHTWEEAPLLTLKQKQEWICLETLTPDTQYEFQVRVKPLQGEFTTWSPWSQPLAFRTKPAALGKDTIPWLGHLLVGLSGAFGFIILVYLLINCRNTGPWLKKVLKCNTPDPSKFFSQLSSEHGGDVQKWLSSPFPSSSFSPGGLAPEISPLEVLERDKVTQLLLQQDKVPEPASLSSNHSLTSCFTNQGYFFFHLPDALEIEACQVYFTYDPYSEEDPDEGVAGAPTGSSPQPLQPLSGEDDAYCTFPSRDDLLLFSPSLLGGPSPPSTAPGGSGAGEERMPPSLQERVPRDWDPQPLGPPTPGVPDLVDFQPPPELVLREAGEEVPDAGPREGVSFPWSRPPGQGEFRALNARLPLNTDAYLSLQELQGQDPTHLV
T1 chain 3: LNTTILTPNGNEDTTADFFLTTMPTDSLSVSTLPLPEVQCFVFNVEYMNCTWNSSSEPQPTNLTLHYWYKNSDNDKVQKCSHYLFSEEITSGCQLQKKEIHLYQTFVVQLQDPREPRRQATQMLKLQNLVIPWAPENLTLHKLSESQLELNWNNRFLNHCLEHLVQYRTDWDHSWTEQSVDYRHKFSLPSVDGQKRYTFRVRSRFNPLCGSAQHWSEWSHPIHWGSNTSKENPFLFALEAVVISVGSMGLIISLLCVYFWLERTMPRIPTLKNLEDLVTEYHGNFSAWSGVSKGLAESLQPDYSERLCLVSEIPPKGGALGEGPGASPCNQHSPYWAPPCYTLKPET
Assay: FACS cell binding; avid

B1: BsVHH-13 (32x19) (antibody)
chain: QVQLVESGGGLVQAGGSLRLSCAASGRTFGSTAVGWFRQVPGKEREFVSAINRSGSATTYADSVKGRFTISRDNAKNTVYLQMNSLTPEDTGVYYCAADSLPYGRPYYFQRSAGEYDYWGQGTQVTVSSGGGGSGGGGSGGGGSGSEVQLVESGGGLVQTGGSLRLSCAASGGTFSRDAMAWFRQVPGKEREFVALISWSGATTNYADSVKGRFAISRDNGKNTVYLQMNRLKPADTAIYYCAADRRPMGSRSYFEPTEYDDWGQGTQVTVSSGGGGSGGGGSGGGGSTVSSDKTHTCPPCPAPEAAGGPSVFLFPPKPKDTLMISRTPEVTCVVVDVSHEDPEVKFNWYVDGVEVHNAKTKPREEQYNSTYRVVSVLTVLHQDWLNGKEYKCKVSNKALGAPIEKTISKAKGQPREPQVYTLPPSRDELTKNQVSLTCLVKGFYPSDIAVEWESNGQPENNYKTTPPVLDSDGSFLLYSKLTVDKSRWQQGNVFSCSVMHEALHNHYTQKSLSLSPGK
In the case of B1, the EC50 is reported as 41.8 nM.

B2: BsVHH-16 (27x22) (antibody)
chain: QVQLVESGGGLVQAGGSLTLSCAAPGRTFGTDVVGWFRQAPGKEREFVASISRSGDGIYYDDSVKGRFTISRNNAWNTVNLQMNSLKVEDTAVYYCAAGDGWSTYDYWGQGTQVTVSSGGGGSGGGGSGGGGSGSEVQLVESGGGLVQAGGSLRLSCAASGSIFSINAMAWFRQVPGMERELVAAISRDGGASVYRDSVKGRFTISRDNSKNTVYLQMNTLKPEDTAIYVCAATRAIGWTARWITTDFDFWGQGTQVTVSSGGGGSGGGGSGGGGSTVSSDKTHTCPPCPAPEAAGGPSVFLFPPKPKDTLMISRTPEVTCVVVDVSHEDPEVKFNWYVDGVEVHNAKTKPREEQYNSTYRVVSVLTVLHQDWLNGKEYKCKVSNKALGAPIEKTISKAKGQPREPQVYTLPPSRDELTKNQVSLTCLVKGFYPSDIAVEWESNGQPENNYKTTPPVLDSDGSFLLYSKLTVDKSRWQQGNVFSCSVMHEALHNHYTQKSLSLSPGK
In the case of B2, the EC50 is reported as 659 nM.

B3: BsVHH-5 (36x16) (antibody)
chain: QVQLVESGGGLVQAGGSLRLSCAASGRTLSRYAMGWFRQAPGSEREFVAASSWGGDTFYADSVEGRFTFSRDNAKNAVYLQMNSLQPEDTAAYYCAAAPTSFPTTAYSSSNSYAYWGQGTQVTVSSGGGGSGGGGSGGGGSGSEVQLVESGGGLVQAGGSLRLSCAASGRAIENYPVGWFRQAPGKEREFVAAITWISGSTLYADSVKGRFTISRDNAKNTVYLQMSSLKPEDTALYYCAAALKTITRGQNDYSYWGQGTQVTVSSGGGGSGGGGSGGGGSTVSSDKTHTCPPCPAPEAAGGPSVFLFPPKPKDTLMISRTPEVTCVVVDVSHEDPEVKFNWYVDGVEVHNAKTKPREEQYNSTYRVVSVLTVLHQDWLNGKEYKCKVSNKALGAPIEKTISKAKGQPREPQVYTLPPSRDELTKNQVSLTCLVKGFYPSDIAVEWESNGQPENNYKTTPPVLDSDGSFLLYSKLTVDKSRWQQGNVFSCSVMHEALHNHYTQKSLSLSPGK
Binder B3 has an EC50 of 121 nM.

B4: BsVHH-11 (27x19) (antibody)
chain: QVQLVESGGGLVQAGGSLTLSCAAPGRTFGTDVVGWFRQAPGKEREFVASISRSGDGIYYDDSVKGRFTISRNNAWNTVNLQMNSLKVEDTAVYYCAAGDGWSTYDYWGQGTQVTVSSGGGGSGGGGSGGGGSGSEVQLVESGGGLVQTGGSLRLSCAASGGTFSRDAMAWFRQVPGKEREFVALISWSGATTNYADSVKGRFAISRDNGKNTVYLQMNRLKPADTAIYYCAADRRPMGSRSYFEPTEYDDWGQGTQVTVSSGGGGSGGGGSGGGGSTVSSDKTHTCPPCPAPEAAGGPSVFLFPPKPKDTLMISRTPEVTCVVVDVSHEDPEVKFNWYVDGVEVHNAKTKPREEQYNSTYRVVSVLTVLHQDWLNGKEYKCKVSNKALGAPIEKTISKAKGQPREPQVYTLPPSRDELTKNQVSLTCLVKGFYPSDIAVEWESNGQPENNYKTTPPVLDSDGSFLLYSKLTVDKSRWQQGNVFSCSVMHEALHNHYTQKSLSLSPGK
For B4, the EC50 was 38.1 nM.
